The values below come from article PMC3022805 (Journal of Biomedical Science, 2011).

Data set [1] concerns the molecule itself. The data set can be described thus: AUC; sedimentation velocity and sedimentation equilibrium fitted together to a global discrete species model (SEDPHAT); PBS pH 7.3 with 5 mM DHPC (submicellar), 20°C.
Data set [2] deals with the molecule itself. The data set can be described thus: AUC; sedimentation velocity (42,000 rpm, 0.5 mg/ml) and sedimentation equilibrium (10,000, 15,000, 20,000 rpm, 18 h each) fitted together to a global discrete species model (SEDPHAT); PBS pH 7.3, 20°C, no DHPC.
Data set [3] concerns the molecule itself. The experiment in a line: AUC; sedimentation velocity and sedimentation equilibrium fitted together to a global discrete species model (SEDPHAT); PBS pH 7.3 with 50 mM DHPC (micelles), 20°C.

Values joined by “and” are separate entries in the source; they are usually repeats but may differ in a detail not shown here. Equal values may be shown once.

B1: apoE3-(72-166) (domain or fragment, human, UniProt P02649 90-184, looked up)
chain: KAYKSELEEQLTPVAEETRARLSKELQAAQARLGADMEDVCGRLVQYRGEVQAMLGQSTEELRVRLASHLRKLRKRLLRDADDLQKRLAVYQAGA
notes: 12 kDa; numbers count on: the mature protein of 299 amino acids; source: E. coli, purified
As a reminder, the stoichiometry N is the number of molecules, sites or subunits per partner or assembly. In the case of B1, the “stoichiometry N” value came out at 4 in data set [1], 6 in data set [2] and 2 in data set [3].

B2: apoE2-(72-166) (domain or fragment, human, UniProt P02649 90-184, looked up)
chain: KAYKSELEEQLTPVAEETRARLSKELQAAQARLGADMEDVCGRLVQYRGEVQAMLGQSTEELRVRLASHLRKLRKRLLRDADDLQKCLAVYQAGA
notes: 12 kDa; numbers count on: the mature protein of 299 amino acids; cDNA amplified with the printed primers and ligated NdeI-XhoI into pET-29a(+); source: E. coli, purified
Turning to B2, the “stoichiometry N” value is 2 and 6 in data set [2]; 4 in data set [3].

B3: apoE4-(72-166) (domain or fragment, human, UniProt P02649 90-184, looked up)
chain: KAYKSELEEQLTPVAEETRARLSKELQAAQARLGADMEDVRGRLVQYRGEVQAMLGQSTEELRVRLASHLRKLRKRLLRDADDLQKRLAVYQAGA
notes: as for B1
As to B3, the “stoichiometry N” value is 4 in data set [2] and 2 in data set [3].
